The DeepSol protein solubility set

test: soluble on expression in E. coli; label from the status in PepcDB or PDB records

Sequence | soluble on expression in E. coli
MGSDKIHHHHHHMNRSTRSHKAIVIFSGGQDSTTCLFQAIQEFKRENVEVITFQYGQRHSIELEKAAWIAQNLGIKQTVIDTSVIKAITTNALITEATIKQDGDKPNTFVDGRNALFLLYTAIYAKGQGIQTIFTGVCETDFSGYPDCRDIFIKSMNVTLNLAMDYNFNIRTPLMYLTKKQTWALADQLGAFEYVREHTHTCYLGVEGGCHTCPSCLLREKGLNEYLAEKSGEKNV | not soluble
MDKFKYAFDNKRYHTWNYYLRNTFGEKVFKVSINAGFTCPNIDGSLGYGGCTYCSKEGSGDFAGNPKDNLISQFYNIKEMMLKKWPHAKYIGYFQAYTNTYAPLEVLKEKYETILELEDVIGLSISTRPDCLPDDIVEYLSELNKRTNLWVELGLQTIHDSTSKIINRGHDYKTFVEGVEKLKSKNIKVVVHIINGLPGEDYNMMMETAKAVGKMGVDGIKIHLLHVIKDTPMEKMLQNGMLTLMEQDEYINLVCDQLEILPETMIIHRLTGDGKRDELVGPIWSLKKWEILNKIDDTLKARNSYQGCKFV | soluble
MGSDKIHHHHHHMKGGTEPVETSKMEKAAALLGGMIDLPTIPAVAIQVLSLLDEPEVDVDDVAELVLTDQVMAARVLKMVNSPLYRPATEITSLKGALVYLGLRHIREFILTCSIIQCSEGKDGVLGVKPFWEHSFGVGIVARLIAEKVGYHDTEKAYIGGIIHDIGEVFLSYYMRDEFQKIVDSISDKPHKLVEAEEEFLGTTHCEIGLCIARAWRFPDDYCEVIAHHHAPQEAKNAPRLTAIVNLADLFCNVRQLDYGGKAWVSFSLADEPAWGMLQGPGSRLSELDIERFCYELDDRVEEISELVGNIFKNG | not soluble
MIEVGDLKKGMFIIYDGEIYRVLEASKHFMGRGSGLIRTKLKNVKTGFVREVNFPSGEKVQEAELSFRKAQYLYRDGDHYYFMTLDDYEQYALSEEEIGDAKYYLVENMEVDLVFHEGTPIGIELPTTVELTVVETEPSFKGDTVSGGGKPAVLETGLKITVPYFIEVGDKIKVDTRTGEYVGRA | soluble
MGSDKIHHHHHHMIHIKRAPDTETAYLVMKEGFSDYMIPLGLSPEVFQERILERDGNQLEHSFIAYHGERPVAIWLNGLKTIKKKTVMRCGGLAVDPQYRRLGIAKALYDAQLSYAKSLNVDCLMLEVIQGNEPAITLYKSFGYQTVSELGYFHKEESGQVEPLVEIDQVAFERRYIQQDEYIWQQDPGVMKLAKARYYELDGAFIAAVNESIFAILTDEEEVARVATEATRRLAGELYHLQSTNQQVWEELLKAGWQQRDLKQFIMQKPISV | not soluble
MGSDKIHHHHHHMHDFLQFWLNEFSRSENPQHVNSVLTRAAATLGYEYAAYGMRRPFPISNPQILMVSNYPDRWQERYIEARFANVDSAVKAALGSDRPVTWSASTNASKSAFWAEALSFGIAHGWSSASRGADGTIGVLSLSRRQDAIDTAEKFRNESIVHWLANVAHASMAPFLPAADEFDPDLTRRETDVLKWTADGKTAYEIALILSISESTVNFHVKNIVSKLGSTNKIQAVAKAALMGML | not soluble
MGSDKIHHHHHHMDSELRKRFNPDGSLLRRQQLRMLELLEVIDVICRKHQIPYWLSSGTLIGAARHKGFIPWDDDLDIEMLRSDYLRLLKVLPQELPDNLALQTNETDPNYIFIYGKLRDKDSHLEETNSYDRIFHYTGIYIDIFPLEKIPYCLAWIGGHMQGQIYNQLNNKNIKESTLYKRIRRIYHFNTRIGFPILRFIAKLFPGKELRHSFGTAYFKPRYTDDIFPLTEMEFEGKMFPVPRQTDAVLRKIYGDYMQLPDLENIHPHYNKLEFYK | not soluble
MGSDKIHHHHHHMYKINIIRSDSVYKNILKAPINDRDSIFTKEILVPFKKKFEVQHMPIYNDDKQTMSAIQFLDAFQISPKDLRMSDQMSIQYLNNDFWSNCEKYLKVAIDQFSNYSISSQVSNYHFTVLLGDSQKPLMYLNKNRGGDGGIPGYIMIYLVPSTSTINSMKSLIAHEVNHNMRYQYIDWDGGSLIELIIAEGLAENYVESLYGKAHIGPWVTNTNWSRDNVKIKNTIYNHLHLKHIFESMPYLYGDDINKLQGRPIVGLSHAAGYACGYHLVKYFLQKTNIPIEVATTLPAQKIINEVTEFWHTHTL | not soluble
MGSDKIHHHHHHMKKILIVTRTFGKYSQEPVEFLRKEGFEIIRSDTIDPDILKEVDALIVGTHPVTAEMVENSSLKIIAKHGVGVDNIDLEAATKKGIPVTITAGANSLSVAELTIAFIFALSRGLVWAHNKLFLERRWEGTVGQEVSGKTLGVVGFGSIGREVVKKAVCLGMNVLVYDPYVSKDSVRLLEATPVDDLEQLLKESDFVSLHVPLNESTKNMIGERELSLMKKSAFLINTSRGELVDEEALVKALKEGRIAGAALDVFSEEPPDANSPLFECPNLITTAHIGAHTKEAIFRMNMMAAQSIVDFFKGRIPRYVVNKEVIRILKEKGYQEIS | not soluble
MCGRFAQSQTREDYLALLAEDIERDIPYDPEPIGRYNVAPGTKVLLLSERDEHLHLDPVFWGYAPGWWDKPPLINARVETAATSRMFKPLWQHGRAICFADGWFEWKKEGDKKQPFFIYRADGQPIFMAAIGSTPFERGDEAEGFLIVTAAADQGLVDIHDRRPLVLSPEAAREWMRQEISGKEASEIAASGCVPANQFSWHPVSRAVGNVKTRARSLEHHHHHH | not soluble
MHHHHHHSSGVDLGTENLYFQSMRPFLIGVSGGTASGKSTVCEKIMELLGQNEVEQRQRKVVILSQDRFYKVLTAEQKAKALKGQYNFDHPDAFDNDLMHRTLKNIVEGKTVEVPTYDFVTHSRLPETTVVYPADVVLFEGILVFYSQEIRDMFHLRLFVDTDSDVRLSRRVLRDVRRGRDLEQILTQYTTFVKPAFEEFCLPTKKYADVIIPRGVDNMVAINLIVQHIQDILNGDICKWHRGGS | soluble
VFLDFEKGIEEFEAKIEQLRFAQDNSALDISAEIARLQTKSLGLTKSVYAKLTPWQISQVARHPQRPYTLDYVQHLFTDFEELHGDRNFADDQAIVGGLARFNGQTVMIIGHQKGRDTKEKIHRNFGMPKPEGYRKALRLMRLAEKFSI | not soluble
MTNKLTSLTIAFVGALSSMGAQAHGWVEYPSARQNTCYLDGGFWDNTIPNQACQAAYDESGAFPFVQRNEVAANVPNYQDMAHVQAIVRDGHLCSAGDAAKSGLNLGSLHWQKTAIALDANNQIELIFNATAPHNPSYWQFYLSNENYDPTVPLTWGDLVLIDTAGNVPVGEDKKYRIKITLPADRSDSAVLYTRWQREDAAGEGFYNCSDISFNGSGTTPPKPTDPVEPPQYSDLGYYINQGFGPVESGDTVRFRTFDSTGAETTDISLAITANNTSTWSAELAGQFNQLKNKEWFIGIWHQEMNHYMYDSNNIYANKVFAPTANVSYQLSLIKADITPPVEPPVEPSNPWDKTATYNAGDIVDHNGKAWVAQWWTKGEEPGTTGEWGVWR | not soluble
GSHMGSLDETTYERLAEETLDSLAEFFEDLADKPYTFEDYDVSFGSGVLTVKLGGDLGTYVINKQTPNKQIWLSSPSSGPKRYDWTGKNWVYSHDGVSLHELLAAELTKALKTKLDLSSLAYSGKDA | soluble
MSLTPTFKDKIARAPKAELHIHIEGSLEPELIFALAQRNGVKLAYDSIDALRAAYAFTDLQSFLDIYYAGASVLLTEQDFYDMTAAYCERALADNVVHTELFFDPQTHTERGVSIETVVAGIERALADAEQRGLSSKLILCFLRHLSEEDALATFESALPLFERYRHRLIGVGLDSSELGHPPTKFARVFEKARALGLKLVAHAGEEGPPAYIYEALDVLKVDRIDHGVRSIEDEALVERLAKTRTALTVCPLSNLKLCVFDDMAKHTLKALLDRGVAVTINSDDPAYFGGYVNENYFATAEGLQLTDAEVHAVIRNGFEASFIEPAQRDALYARLDAYWQAAEGHHHHHH | soluble
MKILHTADWHLGQTFYEYDRREEHLHFLEWLKQQIRQHEIDVLLIAGDVFDSPNPSAESQRMYYRFLREVTSENPSLQIIIIAGNHDSAARLEAPNPLLENMNVTVRGVVRRNAEGDIDLQHLIVPLYTEGEVTAYCLAVPYLRQGDYPSAENYSKGVQLLYEQLFNEVKEKGLPVIAMGHLQATGSEISEDDRSERTVIGGLECVSPDAFDEAIAYTALGHLHRSQRVSHRENVRYSGTPMPMSFAERNNASGVVMITISAEGTGIERLA | not soluble
MGSDKIHHHHHHMKLFRPVDGRPNSGSSCILRSYYIIMAYMSMPIASQRQEKDMTEDIRSRIGLRPVINVSGTMTSLGASIVVPEAVEAMAAILPQFVEINDLQRKASAIIARLTGGEAGFVTASCSSGISLAVAGAITGNNLLAIEKLPDIAPEKNEVLVQMGHVVSYGAPVDQAIRLGGGKVVLVGQATSTHRYHMENAITEKTAAAVYVVSHHVVDYGLLHLSEFVEIAHAKGVPVIVDAASEYDLELFLATGADVVLYSGHKFLGGPTSGIVAGSKELVRHAFLQNMGIGRGMKVGKESIYGVMAALEAWEKRDHAGIRERETGYLNLWKKTLDGRPGVTALIEPDPTNNPLDRMRVIIDADEAHITAWDLTTALARGNPPIITRDHEVEHRYFYLDPCNLHPGQETIVASRLAEELDKARASNEMIATPFEDRSRHRFDGMLCWPD | not soluble
MGSDKIHHHHHHMELDILDALGEGWTLTPAGGITGEAYIASTGQSKLFLKRNSSPFLAILSADGIVPKLLWTKRIYSGDVISAQQFIEGQELEPEMMERPEVARLLGKIHDSKELLFMLQQLDQRPIEPDELLRQCRLYFQPAELAQPELIEQAIDYLSERLPYVRTDEQVVCHSDLNHNNWLVGTDGHLYLNDWDDAIIADRAYDLGMMLYSYVDEECWPEWFAHYGHPLTKDLKQRMYWYVVAQAVLSIYWYEDTMHPDATESYLFLAQLLEMEQED | not soluble
MSEVKKTKVHLISGFLGTGKTTALKSLMAQKDPNEKWVIIVNEFGEIGIDGAVLSDNGIPVAEIAGGCLCCTAGPQMGVTVQKMLRDAKPDRLMIEASGLAHAASVIDELKAKPLDSLLEIGAVFTVVDPRQFINPDYAQQALYKDQIGICDVLAASKTDLCTPEQLAEFHDKAAKLFPPKAKVVEVQNAQLDIQWLDIPVVEKSRYRLKALPDNTMGFQSQGFTFPAGRDFNGEKLTNFFNDLPKMTEGLVRAKGVFQVLGTWVWLNWVDGQWGANQVSWRRDSRFELIAKSFDADLIEQKLKDALELEHHHHHH | soluble
MHRYPRPVSPPVYGPYGSGGHYNPYFHYGVSSFPSAPVHWPHLPSGHAAPPSYPMPYPKPGPLLPPPRPSFLAQFKNSDGTYDINKMMSTVGQMINTVNQVNGVLKGLLGTFKK | not soluble
MSLLAGVKLEKRDKTLVDATEALAGKAVGFYFSAHWCPPCRGFTPILKDFYEEVEDEFEVVFVSFDRSESDLKMYMSEHGDWYHIPYGNDAIKELSTKYGVSGIPALIIVKPDGTEVTKDGRNDVQNGKDPKATVAKWKA | not soluble
MVQQKVEVRLKTGLQARPAALFVQEANRFTSDVFLEKDGKKVNAKSIMGLMSLAVSTGTEVTLIAQGEDEQEALEKLAAYVQEEVLQ | soluble
AHPELKSSVPQADSAVAAPEKIQLNFSENLTVKFSGAKLTMTGMKGMSSHSPMPVAAKVAPGADPKSMVIIPREPLPAGTYRVDWRAVSSDTHPITGNYTFTVK | soluble
MTAKKEHLFIVFENLIKIKSECSCEIFSECGISDITVKQIGYLKAIDEHGEVTFSRLAKITKNSKPTITEMVNKFVRMECVYREKCPEDGRIFYIRLTEKGQRIARAEESSLLRVIEKMAESLNEKEIETLIRILGKVR | not soluble
